Reference: publication PMC6804595 (2018)

What was measured:
Experiment in all cases: SPR
CD147 V61A = target: CD147 V61A
CD147 E64A = target: T1, CD147 E64A (human)
T1 chain: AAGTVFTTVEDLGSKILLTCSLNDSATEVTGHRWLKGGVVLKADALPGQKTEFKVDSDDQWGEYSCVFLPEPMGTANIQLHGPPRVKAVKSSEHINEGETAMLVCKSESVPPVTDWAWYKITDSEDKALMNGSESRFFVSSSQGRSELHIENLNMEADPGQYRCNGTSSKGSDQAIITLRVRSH

[1] = target: T2, ectodomain of CD147 (CD147_(ecto)), wild type (human)
T2 chain: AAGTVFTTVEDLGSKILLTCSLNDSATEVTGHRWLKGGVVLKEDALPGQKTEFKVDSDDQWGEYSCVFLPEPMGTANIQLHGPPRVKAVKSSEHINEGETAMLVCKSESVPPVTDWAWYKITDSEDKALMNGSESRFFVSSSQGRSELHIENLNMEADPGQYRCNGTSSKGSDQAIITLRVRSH

CD147 K63A = target: T3, CD147 K63A (human)
T3 chain: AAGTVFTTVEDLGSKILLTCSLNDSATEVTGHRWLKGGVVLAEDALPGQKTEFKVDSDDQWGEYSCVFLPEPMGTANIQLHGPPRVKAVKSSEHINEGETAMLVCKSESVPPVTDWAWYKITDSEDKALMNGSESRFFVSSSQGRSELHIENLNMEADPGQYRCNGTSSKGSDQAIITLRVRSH

CD147 L62A = target: T4, CD147 L62A (human)
T4 chain: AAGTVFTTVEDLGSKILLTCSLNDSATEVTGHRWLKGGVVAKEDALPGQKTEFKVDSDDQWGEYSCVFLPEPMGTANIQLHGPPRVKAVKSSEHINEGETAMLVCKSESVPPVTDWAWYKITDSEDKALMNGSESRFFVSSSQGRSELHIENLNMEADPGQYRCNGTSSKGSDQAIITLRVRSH

CD147 D65A = target: T5, CD147 D65A (human)
T5 chain: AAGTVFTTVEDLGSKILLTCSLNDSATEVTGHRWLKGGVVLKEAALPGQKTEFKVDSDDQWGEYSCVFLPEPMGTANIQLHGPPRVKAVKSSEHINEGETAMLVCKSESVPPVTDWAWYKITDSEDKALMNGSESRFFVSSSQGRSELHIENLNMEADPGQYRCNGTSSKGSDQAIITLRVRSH

[2] = target: T6, CD147 K63A/D65A double mutant (human)
T6 chain: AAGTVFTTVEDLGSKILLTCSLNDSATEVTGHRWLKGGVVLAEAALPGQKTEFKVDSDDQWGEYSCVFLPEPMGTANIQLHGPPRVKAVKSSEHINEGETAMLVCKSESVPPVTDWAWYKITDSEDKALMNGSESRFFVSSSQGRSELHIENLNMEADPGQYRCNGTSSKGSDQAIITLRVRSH

B1: anti-CD147 mAb 5A12 (antibody, V domains shown)
VH: EVKLEESGGGLVQPGGSMKLSCVASGFTFSNYWMHWVRQSPEKGLEWVAEIRLKSINYATHYAESVKGRFTISRDDSKSSVYLQMNNLRTEDTGIYYCTSYDYEYWGQGTLITVSA
VL: NIVMTQSPKSMSMSVGERVTLSCKASEIVGTYVSWYQQKPEQSPKLLIYGASNRYTGVPDRFTGSGSATDFTLTISSVQAEDLADYHCGQSYSYPFTFGSGTKLEIK
For B1, the Kd (CD147 V61A) was 0.97 nM, the Kd (CD147 E64A) was 7.07 nM and the Kd [1] was 0.566 nM. It also gave a Kd (CD147 K63A) of 576 nM, a Kd (CD147 L62A) of 2.71 nM and a Kd (CD147 D65A) of 12.7 nM. The Kd [2] was 115 nM.
